Data from doi:10.1101/2022.02.02.478874 (bioRxiv, 2022).

T1: ^mChSpindly^ΔRV (human, UniProt Q96EA4 1-605, ΔRV (residues R154-V155))
T1 sequence: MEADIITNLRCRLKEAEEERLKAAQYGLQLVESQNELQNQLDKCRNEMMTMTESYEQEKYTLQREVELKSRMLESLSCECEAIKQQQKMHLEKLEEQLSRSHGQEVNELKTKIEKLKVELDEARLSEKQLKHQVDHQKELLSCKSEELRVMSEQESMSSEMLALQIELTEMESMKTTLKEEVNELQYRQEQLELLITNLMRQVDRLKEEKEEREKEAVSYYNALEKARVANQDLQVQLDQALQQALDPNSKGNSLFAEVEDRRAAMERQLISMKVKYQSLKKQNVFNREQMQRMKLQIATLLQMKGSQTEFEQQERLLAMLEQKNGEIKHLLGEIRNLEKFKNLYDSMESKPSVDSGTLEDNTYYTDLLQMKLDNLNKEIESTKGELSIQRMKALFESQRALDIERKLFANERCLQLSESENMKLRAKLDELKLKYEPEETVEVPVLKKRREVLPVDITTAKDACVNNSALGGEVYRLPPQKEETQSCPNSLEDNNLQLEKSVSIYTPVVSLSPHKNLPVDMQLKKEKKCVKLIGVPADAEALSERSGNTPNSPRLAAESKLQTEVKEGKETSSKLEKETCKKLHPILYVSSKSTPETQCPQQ

B1: ^mChSpindly^CC2* (R295E-K297E) (natural protein)
chain: MEADIITNLRCRLKEAEEERLKAAQYGLQLVESQNELQNQLDKCRNEMMTMTESYEQEKYTLQREVELKSRMLESLSCECEAIKQQQKMHLEKLEEQLSRSHGQEVNELKTKIEKLKVELDEARLSEKQLKHQVDHQKELLSCKSEELRVMSERVQESMSSEMLALQIELTEMESMKTTLKEEVNELQYRQEQLELLITNLMRQVDRLKEEKEEREKEAVSYYNALEKARVANQDLQVQLDQALQQALDPNSKGNSLFAEVEDRRAAMERQLISMKVKYQSLKKQNVFNREQMQEMELQIATLLQMKGSQTEFEQQERLLAMLEQKNGEIKHLLGEIRNLEKFKNLYDSMESKPSVDSGTLEDNTYYTDLLQMKLDNLNKEIESTKGELSIQRMKALFESQRALDIERKLFANERCLQLSESENMKLRAKLDELKLKYEPEETVEVPVLKKRREVLPVDITTAKDACVNNSALGGEVYRLPPQKEETQSCPNSLEDNNLQLEKSVSIYTPVVSLSPHKNLPVDMQLKKEKKCVKLIGVPADAEALSERSGNTPNSPRLAAESKLQTEVKEGKETSSKLEKETCKKLHPILYVSSKSTPETQCPQQ

Columns and labels:
[1] = molecular target: ROD-Zwilch-ZW10 (RZZ) complex with mCherry on ROD (UniProt P50748;Q9H900;O43264); assay: SEC
Chain of ROD-Zwilch-ZW10 (RZZ) complex with mCherry on ROD (P50748 whole entry, chain 1 of 3): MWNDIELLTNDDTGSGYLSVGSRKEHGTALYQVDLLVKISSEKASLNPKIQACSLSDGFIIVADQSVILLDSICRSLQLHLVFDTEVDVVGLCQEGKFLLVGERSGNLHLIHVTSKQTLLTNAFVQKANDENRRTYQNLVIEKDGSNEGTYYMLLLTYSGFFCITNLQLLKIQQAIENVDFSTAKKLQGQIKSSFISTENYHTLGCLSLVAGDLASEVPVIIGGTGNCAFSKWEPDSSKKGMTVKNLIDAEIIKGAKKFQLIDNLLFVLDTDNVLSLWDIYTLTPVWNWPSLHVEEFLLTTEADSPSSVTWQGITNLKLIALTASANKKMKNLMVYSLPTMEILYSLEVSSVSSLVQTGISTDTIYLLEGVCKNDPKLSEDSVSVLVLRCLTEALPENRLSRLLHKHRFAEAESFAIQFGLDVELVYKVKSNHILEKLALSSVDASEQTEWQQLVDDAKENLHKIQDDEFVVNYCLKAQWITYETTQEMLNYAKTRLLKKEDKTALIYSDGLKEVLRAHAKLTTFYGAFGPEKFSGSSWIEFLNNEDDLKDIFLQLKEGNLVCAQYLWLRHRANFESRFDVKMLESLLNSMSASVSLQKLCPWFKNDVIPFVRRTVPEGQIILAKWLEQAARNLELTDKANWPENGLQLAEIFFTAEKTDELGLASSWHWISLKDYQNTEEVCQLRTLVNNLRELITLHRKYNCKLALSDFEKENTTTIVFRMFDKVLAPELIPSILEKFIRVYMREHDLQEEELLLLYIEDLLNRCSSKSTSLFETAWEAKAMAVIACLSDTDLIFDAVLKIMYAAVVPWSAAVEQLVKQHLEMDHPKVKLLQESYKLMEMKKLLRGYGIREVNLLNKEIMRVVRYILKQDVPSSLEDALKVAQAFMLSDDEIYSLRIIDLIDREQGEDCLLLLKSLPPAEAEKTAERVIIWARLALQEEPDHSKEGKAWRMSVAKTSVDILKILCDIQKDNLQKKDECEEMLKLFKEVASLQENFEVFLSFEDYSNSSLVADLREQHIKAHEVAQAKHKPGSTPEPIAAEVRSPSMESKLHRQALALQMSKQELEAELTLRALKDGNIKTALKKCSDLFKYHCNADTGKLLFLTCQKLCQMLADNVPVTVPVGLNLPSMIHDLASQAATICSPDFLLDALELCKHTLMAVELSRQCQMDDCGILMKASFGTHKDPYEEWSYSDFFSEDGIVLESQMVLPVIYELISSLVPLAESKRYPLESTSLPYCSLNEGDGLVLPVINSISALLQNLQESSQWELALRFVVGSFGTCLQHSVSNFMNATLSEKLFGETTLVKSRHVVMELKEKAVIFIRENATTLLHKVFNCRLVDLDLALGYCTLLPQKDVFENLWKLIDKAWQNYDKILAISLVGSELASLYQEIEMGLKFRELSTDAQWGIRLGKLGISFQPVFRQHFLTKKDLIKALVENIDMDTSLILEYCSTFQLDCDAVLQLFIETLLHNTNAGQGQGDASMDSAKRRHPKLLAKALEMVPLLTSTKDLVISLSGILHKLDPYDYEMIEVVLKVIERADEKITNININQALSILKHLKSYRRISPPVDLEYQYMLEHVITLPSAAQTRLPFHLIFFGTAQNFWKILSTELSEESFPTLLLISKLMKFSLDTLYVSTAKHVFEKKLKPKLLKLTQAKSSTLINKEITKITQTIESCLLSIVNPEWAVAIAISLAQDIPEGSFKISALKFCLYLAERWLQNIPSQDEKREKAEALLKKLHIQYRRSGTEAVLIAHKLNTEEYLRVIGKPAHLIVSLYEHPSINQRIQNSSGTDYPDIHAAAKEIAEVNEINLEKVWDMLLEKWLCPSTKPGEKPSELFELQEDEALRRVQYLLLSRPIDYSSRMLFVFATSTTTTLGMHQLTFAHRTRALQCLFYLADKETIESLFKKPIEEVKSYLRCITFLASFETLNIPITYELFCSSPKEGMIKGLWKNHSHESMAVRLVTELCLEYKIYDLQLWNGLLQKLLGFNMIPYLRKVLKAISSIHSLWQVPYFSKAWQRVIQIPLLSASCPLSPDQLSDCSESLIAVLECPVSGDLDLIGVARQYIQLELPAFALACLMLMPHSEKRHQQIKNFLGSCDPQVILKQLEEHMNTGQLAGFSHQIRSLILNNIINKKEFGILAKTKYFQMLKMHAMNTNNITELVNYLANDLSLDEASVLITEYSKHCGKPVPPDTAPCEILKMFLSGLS
Chain of ROD-Zwilch-ZW10 (RZZ) complex with mCherry on ROD (Q9H900 whole entry, chain 2 of 3): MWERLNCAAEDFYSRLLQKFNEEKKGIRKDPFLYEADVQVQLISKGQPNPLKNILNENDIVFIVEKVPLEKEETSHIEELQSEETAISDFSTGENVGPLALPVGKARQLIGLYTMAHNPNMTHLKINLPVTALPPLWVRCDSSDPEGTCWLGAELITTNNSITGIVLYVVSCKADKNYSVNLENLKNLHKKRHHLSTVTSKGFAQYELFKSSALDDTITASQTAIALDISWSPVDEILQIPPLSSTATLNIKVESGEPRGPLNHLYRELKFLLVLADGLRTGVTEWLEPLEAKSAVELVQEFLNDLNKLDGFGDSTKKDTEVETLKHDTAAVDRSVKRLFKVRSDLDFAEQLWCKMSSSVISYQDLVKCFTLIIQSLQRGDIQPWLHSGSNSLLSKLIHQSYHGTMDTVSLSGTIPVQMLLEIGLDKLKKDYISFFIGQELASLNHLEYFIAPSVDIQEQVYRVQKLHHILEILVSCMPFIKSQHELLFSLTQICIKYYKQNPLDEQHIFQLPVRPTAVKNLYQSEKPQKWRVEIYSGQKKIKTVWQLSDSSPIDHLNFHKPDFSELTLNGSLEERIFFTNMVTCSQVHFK
Chain of ROD-Zwilch-ZW10 (RZZ) complex with mCherry on ROD (O43264 whole entry, chain 3 of 3): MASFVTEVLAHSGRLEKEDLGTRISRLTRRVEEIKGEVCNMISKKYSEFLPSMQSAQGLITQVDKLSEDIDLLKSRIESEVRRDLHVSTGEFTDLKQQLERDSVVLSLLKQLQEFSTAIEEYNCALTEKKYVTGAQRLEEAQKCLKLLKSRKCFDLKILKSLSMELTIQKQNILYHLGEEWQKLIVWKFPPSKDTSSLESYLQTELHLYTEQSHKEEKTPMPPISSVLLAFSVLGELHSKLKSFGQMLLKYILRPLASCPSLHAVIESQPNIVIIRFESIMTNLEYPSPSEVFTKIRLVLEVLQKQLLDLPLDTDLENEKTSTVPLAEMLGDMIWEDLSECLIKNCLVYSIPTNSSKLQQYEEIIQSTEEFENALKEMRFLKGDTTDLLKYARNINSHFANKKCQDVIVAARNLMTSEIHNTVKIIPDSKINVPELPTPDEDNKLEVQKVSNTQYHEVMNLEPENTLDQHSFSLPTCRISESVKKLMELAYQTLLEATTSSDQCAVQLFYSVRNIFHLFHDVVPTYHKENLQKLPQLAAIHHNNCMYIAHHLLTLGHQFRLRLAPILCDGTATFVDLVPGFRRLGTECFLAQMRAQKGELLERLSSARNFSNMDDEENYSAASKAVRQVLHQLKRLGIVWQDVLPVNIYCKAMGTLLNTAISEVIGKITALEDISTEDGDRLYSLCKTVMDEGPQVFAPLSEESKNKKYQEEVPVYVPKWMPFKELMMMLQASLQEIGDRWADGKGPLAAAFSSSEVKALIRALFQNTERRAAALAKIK

mass photometry = molecular target: the molecule itself; assay: mass photometry
[2] = molecular target: B1; assay: pull-down
^mChSpindly^ΔRV = molecular target: T1, ^mChSpindly^ΔRV; assay: pull-down

Binder | binding result [1] | stoichiometry N (mass photometry) | binding result [2] | binding result (^mChSpindly^ΔRV)
B1 | binds | 2 | – | –
GST-tagged LIC2 (Dynein light intermediate chain 2) (natural protein) MAPVGVEKKLLLGPNGPAVAAAGDLTSEEEEGQSLWSSILSEVSTRARSKLPSGKNILVFGEDGSGKTTLMTKLQGAEHGKKGRGLEYLYLSVHDEDRDDHTRCNVWILDGDLYHKGLLKFAVSAESLPETLVIFVADMSRPWTVMESLQKWASVLREHIDKMKIPPEKMRELERKFVKDFQDYMEPEEGCQGSPQRRGPLTSGSDEENVALPLGDNVLTHNLGIPVLVVCTKCDAVSVLEKEHDYRDEHLDFIQSHLRRFCLQYGAALIYTSVKEEKNLDLLYKYIVHKTYGFHFTTPALVVEKDAVFIPAGWDNEKKIAILHENFTTVKPEDAYEDFIVKPPVRKLVHDKELAAEDEQVFLMKQQSLLAKQPATPTRASESPARGPSGSPRTQGRGGPASVPSSSPGTSVKKPDPNIKNNAASEGVLASFFNSLLSKKTGSPGSPGAGGVQSTAKKSGQKTVLSNVQEELDRMTRKPDSMVTNSSTENEA | – | – | binds | binds
